From patent US20260167721A1 (ABLEXIS, published 2026)

Experiments:
CD33 on KILR-HL60 cells [1] = biological target: T1, CD33 on KILR-HL60 cells (UniProt P20138 18-364, limits assumed); experiment: flow cytometry on KILR-HL60 (CD33 expressing) cells, antibody at 1 ug/ml
T1 construct: whole, on cells; Target of the gemtuzumab arm; also called CD33 expressing cells

CD33 on KILR-HL60 cells [2] = biological target: T1, CD33 on KILR-HL60 cells; experiment: flow cytometry on KILR-HL60 (CD33 expressing) cells, antibody at 10 ug/ml
[3] = biological target: T2, CD3 on Jurkat wild-type cells (UniProt P07766 23-207; P04234 22-171; P09693 23-182); experiment: flow cytometry on Jurkat WT cells, antibody at 1 ug/ml
T2 construct: whole, on cells; also called Jurkat WT

[4] = biological target: T2, CD3 on Jurkat wild-type cells; experiment: flow cytometry on Jurkat WT cells, antibody at 10 ug/ml
[5] = biological target: T3, recombinant human CD3 epsilon/gamma heterodimer (human, UniProt P07766 23-126; P09693 23-116); experiment: Octet BLI, mAb on FAB2G sensor, hCD3 E/G 200-50 nM; R^2 0.84
T3 construct: Recombinant protein in solution (200-50 nM) in the Octet assay; also called hCD3 E/G
Experimental: (§1) Samples were evaluated by flow cytometry analysis against Jurkat and human Pan-T cells (FIG. 1B) as well as by Octet against recombinant human CD3 proteins to evaluate apparent affinities and binding off-rates (Table 6, infra).

[6] = biological target: T4, recombinant human CD3 epsilon/delta heterodimer (human, UniProt P07766 23-126; P04234 22-105); experiment: Octet BLI, mAb on FAB2G sensor, hCD3 E/D 200-50 nM; R^2 1.00
T4 construct: Recombinant protein in solution (200-50 nM) in the Octet assay; also called hCD3 E/D; human CD3E/D

[7] = biological target: T4, recombinant human CD3 epsilon/delta …; experiment: Octet BLI, mAb on FAB2G sensor, hCD3 E/D 200-50 nM; R^2 0.99
[8] = biological target: T4, recombinant human CD3 epsilon/delta …; experiment: Octet BLI, mAb on FAB2G sensor, hCD3 E/D 200-50 nM; R^2 0.97
Experimental: as §1

T2 sequence (P07766 23-207, chain 1 of 3): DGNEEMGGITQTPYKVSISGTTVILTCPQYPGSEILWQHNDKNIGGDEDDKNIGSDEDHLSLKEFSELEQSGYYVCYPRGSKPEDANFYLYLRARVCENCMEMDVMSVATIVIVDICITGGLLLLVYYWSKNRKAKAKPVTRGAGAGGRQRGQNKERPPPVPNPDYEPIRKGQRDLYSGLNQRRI
T2 sequence (P04234 22-171, chain 2 of 3): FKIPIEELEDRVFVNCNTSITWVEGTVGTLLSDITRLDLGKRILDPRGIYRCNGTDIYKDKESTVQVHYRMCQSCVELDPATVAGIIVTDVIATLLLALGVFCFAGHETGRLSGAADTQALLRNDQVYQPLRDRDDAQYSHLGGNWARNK
T2 sequence (P09693 23-182, chain 3 of 3): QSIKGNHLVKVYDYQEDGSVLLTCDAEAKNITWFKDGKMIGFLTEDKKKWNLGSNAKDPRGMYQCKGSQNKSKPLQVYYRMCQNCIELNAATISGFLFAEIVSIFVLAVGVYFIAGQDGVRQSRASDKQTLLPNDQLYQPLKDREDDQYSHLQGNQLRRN
T3 sequence (P07766 23-126, chain 1 of 2): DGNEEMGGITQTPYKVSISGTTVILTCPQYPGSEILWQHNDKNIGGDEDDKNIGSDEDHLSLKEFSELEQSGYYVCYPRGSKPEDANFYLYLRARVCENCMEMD
T3 sequence (P09693 23-116, chain 2 of 2): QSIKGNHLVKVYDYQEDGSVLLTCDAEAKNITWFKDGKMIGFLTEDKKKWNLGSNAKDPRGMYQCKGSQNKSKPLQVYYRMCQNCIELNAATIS
T4 sequence (P07766 23-126, stated change not applied, chain 1 of 2): as the sequence (P07766 23-126, chain 1 of 2) above
T4 sequence (P04234 22-105, stated change not applied, chain 2 of 2): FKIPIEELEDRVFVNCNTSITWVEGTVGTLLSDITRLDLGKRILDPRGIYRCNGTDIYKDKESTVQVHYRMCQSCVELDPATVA
T1 sequence (P20138 18-364 limits assumed): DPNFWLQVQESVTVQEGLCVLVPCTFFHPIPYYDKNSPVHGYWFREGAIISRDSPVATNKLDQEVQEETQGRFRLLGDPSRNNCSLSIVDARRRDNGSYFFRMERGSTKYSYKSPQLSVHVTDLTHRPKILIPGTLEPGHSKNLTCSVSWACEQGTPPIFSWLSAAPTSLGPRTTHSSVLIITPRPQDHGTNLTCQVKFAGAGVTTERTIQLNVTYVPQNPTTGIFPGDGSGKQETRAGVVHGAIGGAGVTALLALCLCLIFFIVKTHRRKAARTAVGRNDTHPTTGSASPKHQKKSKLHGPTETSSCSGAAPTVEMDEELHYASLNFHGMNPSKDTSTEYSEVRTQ

| Binder | flow cytometry signal (CD33 on KILR-HL60 cells [1]) | flow cytometry signal (CD33 on KILR-HL60 cells [2]) | flow cytometry signal [3] | flow cytometry signal [4] | Kd [5] | Response [5] | koff [5] | kon [5] | other results |
| --- | --- | --- | --- | --- | --- | --- | --- | --- | --- |
| Control Humanized anti-CD3 (high affinity) scFv-Fc knob/TM x gemtuzumab (bispecific antibody) scFv: EVQLVESGGGLVQPGGSLRLSCAASGFTFSTYAMNWVRQAPGKGLEWVGRIRSKYNNYATYYADSVKGRFTISRDDSKNTLYLQMNSLRAEDTAVYYCVRHGNFGDSYVSWFAYWGQGTLVTVSSGKPGSGKPGSGKPGSGKPGSQAVVTQEPSLTVSPGGTVTLTCGSSTGAVTTSNYANWVQQKPGKSPRGLIGGTNKRAPGVPARFSGSLLGGKAALTISGAQPEDEADYYCALWYSNHWVFGGGTKLTVLGGGGSDKTHTCPPCPAPEFEGGPSVFLFPPKPKDTLMISRTPEVTCVVVDVSHEDPEVKFNWYVDGVEVHNAKTKPREEQYNSTYRVVSVLTVLHQDWLNGKEYKCKVSNKALPASIEKTISKAKGQPREPQVYTLPPCREEMTKNQVSLWCLVKGFYPSDIAVEWESNGQPENNYKTTPPVLDSDGSFFLYSKLTVDKSRWQQGNVFSCSVMHEALHNHYTQKSLSLSPGK heavy: EVQLVQSGAEVKKPGSSVKVSCKASGYTITDSNIHWVRQAPGQSLEWIGYIYPYNGGTDYNQKFKNRATLTVDNPTNTAYMELSSLRSEDTAFYYCVNGNPWLAYWGQGTLVTVSSASTKGPSVFPLAPSSKSTSGGTAALGCLVKDYFPEPVTVSWNSGALTSGVHTFPAVLQSSGLYSLSSVVTVPSSSLGTQTYICNVNHKPSNTKVDKRVEPKSCDKTHTCPPCPAPEFEGGPSVFLFPPKPKDTLMISRTPEVTCVVVDVSHEDPEVKFNWYVDGVEVHNAKTKPREEQYNSTYRVVSVLTVLHQDWLNGKEYKCKVSNKALPASIEKTISKAKGQPREPQVCTLPPSREEMTKNQVSLSCAVKGFYPSDIAVEWESNGQPENNYKTTPPVLDSDGSFFLVSKLTVDKSRWQQGNVFSCSVMHEALHNRFTQKSLSLSPGK light: DIQLTQSPSTLSASVGDRVTITCRASESLDNYGIRFLTWFQQKPGKAPKLLMYAASNQGSGVPSRFSGSGSGTEFTLTISSLQPDDFATYYCQQTKEVPWSFGQGTKVEVKRTVAAPSVFIFPPSDEQLKSGTASVVCLLNNFYPREAKVQWKVDNALQSGNSQESVTEQDSKDSTYSLSSTLTLSKADYEKHKVYACEVTHQGLSSPVTKSFNRGEC | 544000 | 648000 | 37900 | 38400 |  |  |  |  |  |
| ABL-CD3-9 (antibody, V domains shown, Chimeric hybridoma mAb: human V, CH1, upper hinge; mouse middle hinge, CH2, CH3) VH: EVQLVDSGGGLVKPGGSLRLSCAASGFTFSSYSMNWVRQAPGKGLEWVSSVNSRGSYIYYADSVKGRFTISRDNAKNSLYLQMNSLRADDTAVYYCARDRRELLLDYWGQGTLVTVSS VL: SYELTQPPSVSVSPGQTARITCSGDALPKKYAYWYQQKSGQAPVLVIYEDSKRPSGIPERFSGSSSGTMATLTISGAQVEDEADYYCYSTDSSGNHCWVFGGGTKLTVL |  |  |  |  | 110 nM | 0.1 | 0.114 s⁻¹ | 1.04e+06 M⁻¹ s⁻¹ | Kd [7]: 70.8 nM; Response [7]: 0.34; koff [7]: 0.0393 s⁻¹; kon [7]: 555000 M⁻¹ s⁻¹ |
| ABL-CD3-35 (antibody, V domains shown, Chimeric hybridoma mAb: human V, CH1, upper hinge; mouse middle hinge, CH2, CH3) VH: EVQLVESGGGLVKPGGSLRLSCAASGFTFSSYSMNWVRQAPGKGLEWVSSVNSRGSYIYYADSVKGRFTISRDNAKDSLYLQMNSLRADDTAVYYCARDRRELLLDYWGQGTLVTVSS VL: SYELTQPPSVSVSPGQTARITCSGDALPKKYAYWYQQKSGQAPVLVIYEDSKRPSGIPERFSGSSSGTMATLTISGAQVEDEADYYCYSTDSSGNHCWVFGGGTKLTVL |  |  |  |  | 14.2 nM | 0.12 | 0.0144 s⁻¹ | 1.02e+06 M⁻¹ s⁻¹ | Kd [8]: 54.7 nM; Response [8]: 0.36; koff [8]: 0.0271 s⁻¹; kon [8]: 495000 M⁻¹ s⁻¹ |

Further lines, with some results ahead:

| flow cytometry signal (CD33 on KILR-HL60 cells [1]) | flow cytometry signal (CD33 on KILR-HL60 cells [2]) | flow cytometry signal [3] | flow cytometry signal [4] | Kd [5] | Response [5] | koff [5] | kon [5] | Binder | other results |
| --- | --- | --- | --- | --- | --- | --- | --- | --- | --- |
| 569000 | 499000 | 6660 | 23100 |  |  |  |  | CD3 × CD33-BspAb66 (bispecific antibody, human IgG1, kappa, also called CD3δε-specific control antibody scFv-Fc knob/TM x gemtuzumab) scFv: EVQLVESGGGLVQPGRSLRLSCAASGFTFDDYAMHWVRQAPGKGLEWVSGISWNSGSIGYADSVKGRFTISRDNAKNSLYLQMNSLRAEDTALYYCAKDSRGYGDYRLGGAYWGQGTLVTVSSGGGGSGGGGSGGGGSGGGGSEIVMTQSPATLSVSPGERATLSCRASQSVSSNLAWYQQKPGQAPRLLIYGASTRATGIPARFSGSGSGTEFTLTISSLQSEDFAVYYCQQYNNWPWTFGQGTKVEIKTSGPGGPDKTHTCPPCPAPEFEGGPSVFLFPPKPKDTLMISRTPEVTCVVVDVSHEDPEVKFNWYVDGVEVHNAKTKPREEQYNSTYRVVSVLTVLHQDWLNGKEYKCKVSNKALPASIEKTISKAKGQPREPQVYTLPPCREEMTKNQVSLWCLVKGFYPSDIAVEWESNGQPENNYKTTPPVLDSDGSFFLYSKLTVDKSRWQQGNVFSCSVMHEALHNHYTQKSLSLSPGK heavy: EVQLVQSGAEVKKPGSSVKVSCKASGYTITDSNIHWVRQAPGQSLEWIGYIYPYNGGTDYNQKFKNRATLTVDNPTNTAYMELSSLRSEDTAFYYCVNGNPWLAYWGQGTLVTVSSASTKGPSVFPLAPSSKSTSGGTAALGCLVKDYFPEPVTVSWNSGALTSGVHTFPAVLQSSGLYSLSSVVTVPSSSLGTQTYICNVNHKPSNTKVDKRVEPKSCDKTHTCPPCPAPEFEGGPSVFLFPPKPKDTLMISRTPEVTCVVVDVSHEDPEVKFNWYVDGVEVHNAKTKPREEQYNSTYRVVSVLTVLHQDWLNGKEYKCKVSNKALPASIEKTISKAKGQPREPQVCTLPPSREEMTKNQVSLSCAVKGFYPSDIAVEWESNGQPENNYKTTPPVLDSDGSFFLVSKLTVDKSRWQQGNVFSCSVMHEALHNRFTQKSLSLSPGK light: DIQLTQSPSTLSASVGDRVTITCRASESLDNYGIRFLTWFQQKPGKAPKLLMYAASNQGSGVPSRFSGSGSGTEFTLTISSLQPDDFATYYCQQTKEVPWSFGQGTKVEVKRTVAAPSVFIFPPSDEQLKSGTASVVCLLNNFYPREAKVQWKVDNALQSGNSQESVTEQDSKDSTYSLSSTLTLSKADYEKHKVYACEVTHQGLSSPVTKSFNRGEC |  |
| 535000 | 623000 | 2620 | 3230 |  |  |  |  | Control Humanized anti-CD3 (low affinity) scFv-Fc knob/TM x gemtuzumab (bispecific antibody) scFv: EVQLVESGGGLVQPGGSLRLSCAASGFTFSTYAMNWVRQAPGKGLEWVGRIRSKYNNYATYYADSVKGRFTISRDDSKNTLYLQMNSLRAEDTAVYYCVRHGNFGDSYVSWFDYWGQGTLVTVSSGKPGSGKPGSGKPGSGKPGSQAVVTQEPSLTVSPGGTVTLTCGSSTGAVTTSNYANWVQQKPGKSPRGLIGGTNKRAPGVPARFSGSLLGGKAALTISGAQPEDEADYYCALWYSNHWVFGGGTKLTVLGGGGSDKTHTCPPCPAPEFEGGPSVFLFPPKPKDTLMISRTPEVTCVVVDVSHEDPEVKFNWYVDGVEVHNAKTKPREEQYNSTYRVVSVLTVLHQDWLNGKEYKCKVSNKALPASIEKTISKAKGQPREPQVYTLPPCREEMTKNQVSLWCLVKGFYPSDIAVEWESNGQPENNYKTTPPVLDSDGSFFLYSKLTVDKSRWQQGNVFSCSVMHEALHNHYTQKSLSLSPGK heavy: EVQLVQSGAEVKKPGSSVKVSCKASGYTITDSNIHWVRQAPGQSLEWIGYIYPYNGGTDYNQKFKNRATLTVDNPTNTAYMELSSLRSEDTAFYYCVNGNPWLAYWGQGTLVTVSSASTKGPSVFPLAPSSKSTSGGTAALGCLVKDYFPEPVTVSWNSGALTSGVHTFPAVLQSSGLYSLSSVVTVPSSSLGTQTYICNVNHKPSNTKVDKRVEPKSCDKTHTCPPCPAPEFEGGPSVFLFPPKPKDTLMISRTPEVTCVVVDVSHEDPEVKFNWYVDGVEVHNAKTKPREEQYNSTYRVVSVLTVLHQDWLNGKEYKCKVSNKALPASIEKTISKAKGQPREPQVCTLPPSREEMTKNQVSLSCAVKGFYPSDIAVEWESNGQPENNYKTTPPVLDSDGSFFLVSKLTVDKSRWQQGNVFSCSVMHEALHNRFTQKSLSLSPGK light: DIQLTQSPSTLSASVGDRVTITCRASESLDNYGIRFLTWFQQKPGKAPKLLMYAASNQGSGVPSRFSGSGSGTEFTLTISSLQPDDFATYYCQQTKEVPWSFGQGTKVEVKRTVAAPSVFIFPPSDEQLKSGTASVVCLLNNFYPREAKVQWKVDNALQSGNSQESVTEQDSKDSTYSLSSTLTLSKADYEKHKVYACEVTHQGLSSPVTKSFNRGEC |  |
|  |  |  |  | 15.8 nM | 0.03 | 0.00375 s⁻¹ | 237000 M⁻¹ s⁻¹ | ABL-CD3-45 (antibody, V domains shown, Chimeric hybridoma mAb: human V, CH1, upper hinge; mouse middle hinge, CH2, CH3) VH: EVQLVESGGGLVQPGGSLRLSCAASGFTFSSYWMSWVRQAPGKGLEWVANIKEDGSEKYYVDSVKGRFTISRDNAKNSLYLQMNSLRAEDTAVYYCARERRTGYLDYWGQGTLVTVSS VL: not shown | Kd [6]: 13.7 nM; Response [6]: 0.2; koff [6]: 0.000475 s⁻¹; kon [6]: 34600 M⁻¹ s⁻¹ |
| 321000 | 351000 | 2570 | 2570 |  |  |  |  | Gemtuzumab (antibody, V domains shown, the heavy chain entry carries the hole, H435R/Y436F and L234F/L235E/P331S changes, which the control may not have; also called anti-CD33 control antibody) VH: EVQLVQSGAEVKKPGSSVKVSCKASGYTITDSNIHWVRQAPGQSLEWIGYIYPYNGGTDYNQKFKNRATLTVDNPTNTAYMELSSLRSEDTAFYYCVNGNPWLAYWGQGTLVTVSS VL: DIQLTQSPSTLSASVGDRVTITCRASESLDNYGIRFLTWFQQKPGKAPKLLMYAASNQGSGVPSRFSGSGSGTEFTLTISSLQPDDFATYYCQQTKEVPWSFGQGTKVEVKR |  |
